Measurements taken from publication PMC12331169, “Structural and functional studies of rabbit SAMD9 reveal a distinct tRNase module that underlies the antiviral activity”.

Target: T1, rSAMD9 158-389 (tRNase domain) (Oryctolagus cuniculus (European rabbit; …, UniProt G1U2M9 158-389)
T1 sequence: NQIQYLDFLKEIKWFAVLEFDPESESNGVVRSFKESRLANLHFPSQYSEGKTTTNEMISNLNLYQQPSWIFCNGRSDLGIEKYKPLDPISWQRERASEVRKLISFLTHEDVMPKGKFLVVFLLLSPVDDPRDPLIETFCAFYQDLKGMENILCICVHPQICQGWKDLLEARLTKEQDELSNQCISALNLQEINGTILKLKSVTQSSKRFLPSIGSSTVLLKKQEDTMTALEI
Experiment: EMSA; stable complex predominant at 2:1 protein:dsDNA; no DNA density seen in the crystal; EMSA on 0.8% native agarose gel, EtBr then Coomassie stain; buffer, salt, pH and temperature not given (as in earlier paper)
Conditions: protein: recombinant; tags: 6xHis-SUMO removed by Ulp1; chain copies: 2; blunt

B1: 26-nt dsDNA (dsDNA)
DNA 1: TATTCAAATTAATGATTTATTCAATT
DNA 2: AATTGAATAAATCATTAATTTGAATA
Does B1 bind?
Result: binds
